T1: TGF-β2
T1 sequence (P61812 303-414, species assumed, looked up): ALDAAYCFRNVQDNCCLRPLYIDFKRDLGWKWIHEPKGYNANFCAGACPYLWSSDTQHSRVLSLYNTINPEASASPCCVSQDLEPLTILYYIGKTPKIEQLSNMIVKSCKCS


Biological target: T1, TGF-β2
Test: cell-based or functional assay

| IC50 of inhibition of PAI-1 luciferase reporter activity in Mv1Lu mink lung epithelial cells induced with 20 pM TGF-β2 | Binder |
| --- | --- |
| 70 pM | trivalent TGF-β receptor trap RER (RII-BGE-RII) (other, N-linked glycans (as isolated, glycosylated)) NGAVKFPQLCKFCDVRFSTCDNQKSCMSNCSITSICEKPQEVCVAVWRKNDENITLETVCHDPKLPYHDFILEDAASPKCIMKEKKKPGETFFMCSCSSDECNDNIIFSEEYNTSNPDGPEPSTRCELSPINASHPVQALMESFTVLSGCASRGTTGLPREVHVLNLRSTDQGPGQRQREVTLHLNPIASVHTHHKPIVFLLNSPQPLVWHLKTERLAAGVPRLFLVSEGSVVQFPSGNFSLTAETEERNFPQENEHLLRWAQKEYGAVTSFTELKIARNIYIKVGEDQVFPPTCNIGKNFLSLNYLAEYLQPKAAEGCVLPSQPHEKEVHIIELITPSSNPYSAFQVDIIVDIRPAQEDPEVVKNLVLILKCKKSVNWVIKSFDVKGNLKVIAPNSIGFGKESERSMTMTKLVRDDIPSTQENLMKWALDNGYRPVTSYTMAPVANRFHLRLENNEEMRDEEVHTIPPELRILLDPDNGAVKFPQLCKFCDVRFSTCDNQKSCMSNCSITSICEKPQEVCVAVWRKNDENITLETVCHDPKLPYHDFILEDAASPKCIMKEKKKPGETFFMCSCSSDECNDNIIFSEEYNTSNPD |
| 1200 pM | bivalent TGF-β receptor trap ER (BGE-RII) (other, N-linked glycans (as isolated, glycosylated)) GPEPSTRCELSPINASHPVQALMESFTVLSGCASRGTTGLPREVHVLNLRSTDQGPGQRQREVTLHLNPIASVHTHHKPIVFLLNSPQPLVWHLKTERLAAGVPRLFLVSEGSVVQFPSGNFSLTAETEERNFPQENEHLLRWAQKEYGAVTSFTELKIARNIYIKVGEDQVFPPTCNIGKNFLSLNYLAEYLQPKAAEGCVLPSQPHEKEVHIIELITPSSNPYSAFQVDIIVDIRPAQEDPEVVKNLVLILKCKKSVNWVIKSFDVKGNLKVIAPNSIGFGKESERSMTMTKLVRDDIPSTQENLMKWALDNGYRPVTSYTMAPVANRFHLRLENNEEMRDEEVHTIPPELRILLDPDNGAVKFPQLCKFCDVRFSTCDNQKSCMSNCSITSICEKPQEVCVAVWRKNDENITLETVCHDPKLPYHDFILEDAASPKCIMKEKKKPGETFFMCSCSSDECNDNIIFSEEYNTSNPD |

From paper PMC5349899 (Oncotarget, 2016)
